Assay results: US20250215403A1, “Compositions and Methods for Cardiac Tissue Regeneration” (Temple University - Of The Commonwealth System Of Higher …, priority 2022, published 2025)

Assay: Mouse MI model: heart histology 28 days post-MI (Masson trichrome scar size, HW/BW, WGA CM size, CD31 capillaries)
Format: in vivo
Procedure: All surgical and experimental procedures with mice were performed in accordance with protocols approved by Institutional Animal Care and Use Committees at Temple University Animal Care and Use Committee (IACUC). C57BL6 or CM-specific MADM mice (8-12-weeks-old) were anesthetized with isoflurane. MI was induced by permanent ligation of the LAD, as previously described (Garikipati, V. N. S., et al., 2019, Nature Communications, 10:4317). Briefly, the left thoracic region was shaved and sterilized. After intubation, the heart was exposed through a left thoracotomy. A suture was placed to ligate the LAD. The thoracotomy and skin were sutured closed in layers. Excess air was removed from the thoracic cavity, and the mouse was removed from ventilation when normal breathing was established. In order to determine the effect of modRNA on cardiovascular outcome after MI, modRNAs (100 μg/heart) were injected into the infarct zone immediately after LAD ligation (Magadum A., et al., Circulation. 2020, 141 (15): 1249-1265). For examination of heart histology, hearts were collected at the end of each study, quickly washed in PBS, weighed, and fixed in 4% PFA for cryo-sectioning and immunostainings. In all experiments, the surgeon was blinded to the treatment group. For assessment of heart histology, hearts were collected at the end of each study. The hearts were excised, briefly washed in PBS, perfused with perfusion buffer, weighed and fixed in 4% PFA at 4° C. overnight. The heart blocks were transverse sectioned at 6-8 μm using cryostat. The heart sections were further processed for histological evaluation using immunostaining (see below) or histological scar staining using Masson's trichrome staining kit (Sigma) according to standard procedures. Measuring the ratio of heart weight to body weight was done using a scale. This ratio was calculated as the heart tissue weight relative to the mouse total body weight in grams (g).
Mice hearts were harvested, weighed, and fixed in 4% PFA/PBS overnight on shaker and then washed with PBS for 1 hour and incubated in 30% sucrose/PBS at 4° C. for 12-18 hours. Hearts were then fixed in OCT and frozen at −80° C. (Magadum A., et al., Circulation. 2020, 141 (15): 1249-1265). Transverse heart sections (6-8 μm) were made using a cryostat. […] For immunostaining with wheat germ agglutinin (WGA) for CM size quantification, images were captured at 40× magnification, and ImageJ was used to determine the area of each cell. Quantitative analyses involved counting of multiple fields from 5-8 mouse hearts per group, and 3-4 sections/heart (˜50 cells per field assessed, for a total ˜250 cells per sample). […] BrdU positive CMs were counted in multiple fields from three independent samples per group and 3 sections/heart. […]

B1: PSAT1 modRNA: modified mRNA with N1-methylpseudouridine, transcribed in vitro, encoding phosphoserine aminotransferase 1 (ORF SEQ ID NO: 1, RNA SEQ ID NO: 2) (nucleic acid)
chain: AUGGAAGCCACCAAGCAAGUGGUUAACUUUGGGCCCGGGCCUGCCAAGCUGCCACACUCGGUAUUGUUGGAGAUCCAGAAGCAGCUACUAGACUACAGAGGACUCGGCAUCAGUGUGCUCGAAAUGAGUCACAGGUCAUCAGAUUUUGCCAAGAUUAUUGGCAAUACAGAGAAUCUUGUGAGGGAAUUGCUAGCUGUUCCCAACAACUACAAGGUGAUCUUUGUACAAGGAGGUGGGUCUGGCCAGUUCAGUGCUGUCCCCUUAAAUCUGAUUGGCCUGAAAGCUGGAAGGAGUGCUGACUACGUGGUGACCGGAGCUUGGUCAGCUAAGGCUGCGGAAGAAGCCAAGAAGUUUGGAACGGUGAACAUUGUCCACCCUAAACUUGGAAGUUACACAAAAAUUCCAGACCCAAGCACCUGGAACCUCAACCCGGACGCCUCCUAUGUAUACUUCUGUGCAAACGAGACUGUGCACGGGGUGGAGUUUGACUUCGUACCUGACGUCAAGGGAGCGGUGCUGGUCUGUGACAUGUCCUCAAACUUCUUAUCCAGGCCGGUGGAUGUUUCCAAGUUUGGUGUGAUUUUCGCUGGUGCUCAGAAGAAUGUUGGCUCUGCCGGGGUGACGGUGGUGAUUGUCCGGGAUGACCUGCUGGGGUUCUCGCUCAGAGAGUGCCCAUCAGUCCUUGACUACAAAGUGCAGGCUGGGAACAACUCUUUGUAUAACACACCUCCGUGCUUCAGCAUCUACGUCAUGGGCAUGGUCCUGGAAUGGAUCAAGAACAACGGCGGGGCCGCAGCCAUGGAGAAGCUCAGCUCCAUCAAAUCCCAAAUGAUUUAUGAGAUCAUUGAUAAUUCUCAAGGAUUUUAUGUAUGCCCAGUGGAGCGCCAGAAUAGAAGCAGGAUGAACAUCCCAUUUCGCAUUGGCAACGCCAAAGGAGACGAAGCUUUGGAAAAGCGGUUUCUUGACAAGGCGGUAGAACUCAACAUGAUCUCCUUGAAGGGGCACAGGUCAGUGGGAGGCAUUCGUGCCUCUCUGUAUAACGCUGUCACAACCGAAGACGUUGAGAAGCUGGCGGCCUUCAUGAAGAAUUUCUUGGAGAUGCAUCAGCUGUGA
modifications: N1-methylpseudouridine
CM size (WGA): significantly decreased | capillary density (CD31): improved | heart weight to body weight (HW/BW) ratio: significantly increased | scar size (Masson's trichrome staining) (compared to Luc modRNA): decreased
